Experiment [1] deals with T1, RasGAP SH2-SH3-SH2 construct (residues 174 to 444), WT (human, UniProt P20936 174-444, C236S | C261S | C372S | C402S).
T1 sequence: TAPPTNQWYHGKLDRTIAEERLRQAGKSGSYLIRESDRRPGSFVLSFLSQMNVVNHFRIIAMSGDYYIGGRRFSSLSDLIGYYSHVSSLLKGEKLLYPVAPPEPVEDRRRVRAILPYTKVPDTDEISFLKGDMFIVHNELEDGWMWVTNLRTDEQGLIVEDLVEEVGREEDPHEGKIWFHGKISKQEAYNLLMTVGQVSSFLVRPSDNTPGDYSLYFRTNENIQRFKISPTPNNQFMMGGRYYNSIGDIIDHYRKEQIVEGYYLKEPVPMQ
Kind of experiment: ITC; replicate, Figure S7 panel A. For orientation: In ITC the heat of successive injections is recorded.

In experiment [2] the target is T2, RasGAP SH2-SH3-SH2 construct (residues 174 to 444), R194C (human, UniProt P20936 174-444, R194C | C236S | C261S | C372S | C402S).
T2 sequence: T1 sequence with R21C
The experiment in a line: ITC; average.

The target in experiment [3] is T3, RasGAP SH2-SH3-SH2 construct (residues 174 to 444), R427Q (human, UniProt P20936 174-444, C236S | C261S | C372S | C402S | R427Q).
T3 sequence: T1 sequence with R254Q
The experiment in a line: ITC; average.

The target of experiment [4] is T1, RasGAP SH2-SH3-SH2 construct (residues …). The experiment in a line: ITC; average.
In experiment [5] the target is T2, RasGAP SH2-SH3-SH2 construct (residues …). The experiment in a line: ITC; replicate, Figure S7 panel C.
For experiment [6] the target is unchanged. The experiment in a line: ITC; replicate, Figure S7 panel E.
In experiment [7] the target is T4, RasGAP SH2-SH3-SH2 construct (residues 174 to 444), WT (human, UniProt P20936 174-444, C236S | C261S | C372S | C402S).
T4 construct: also called p120RasGAP SH2-SH3-SH2; RASA1; source: E. coli Rosetta (DE3), purified (Ni-NTA, TEV cleavage, anion exchange, SEC); not shown: His6, N-terminal, cleaved
T4 sequence (looked up): T1 sequence
Kind of experiment: ITC; about 25 μM peptide in the syringe titrated into about 5 μM RasGAP SH2-SH3-SH2 in the cell; 25 °C; 250 mM NaCl, 20 mM Tris pH 8, 1 mM TCEP; Independent model. The conditions noted are these: both partners purified.

Experiment [8] addresses T5, RasGAP SH2-SH3-SH2 construct (residues 174 to 444), R194C (human, UniProt P20936 174-444, R194C | C236S | C261S | C372S | C402S).
T5 construct: human RasGAP (p120RasGAP, RASA1), UniProt P20936, residues 174-444, with C236S, C261S, C372S, C402S and the cancer-associated N-SH2 mutation R194C; also called p120RasGAP SH2-SH3-SH2 R194C; source: E. coli Rosetta (DE3), purified (Ni-NTA, TEV cleavage, anion exchange, SEC); not shown: His6, N-terminal, cleaved
T5 sequence (looked up): T1 sequence with R21C
The experiment is described as above. As to conditions: both partners purified.

The target of experiment [9] is T6, RasGAP SH2-SH3-SH2 construct (residues 174 to 444), R427Q (human, UniProt P20936 174-444, C236S | C261S | C372S | C402S | R427Q).
T6 construct: human RasGAP (p120RasGAP, RASA1), UniProt P20936, residues 174-444, with C236S, C261S, C372S, C402S and the cancer-associated C-SH2 mutation R427Q; also called p120RasGAP SH2-SH3-SH2 R427Q; source: E. coli Rosetta (DE3), purified (Ni-NTA, TEV cleavage, anion exchange, SEC); not shown: His6, N-terminal, cleaved
T6 sequence (looked up): T1 sequence with R254Q
The description is as above. As to conditions: both partners purified.

Experiment [10] addresses T3, RasGAP SH2-SH3-SH2 construct (residues …). Kind of experiment: ITC; replicate, Figure S7 panel F.
The target in experiment [11] is T1, RasGAP SH2-SH3-SH2 construct (residues …). The experiment in a line: ITC; replicate, Figure S7 panel B.
The target of experiment [12] is T2, RasGAP SH2-SH3-SH2 construct (residues …). The experiment in a line: ITC; replicate, Figure S7 panel D.
In experiment [13] the target is T3, RasGAP SH2-SH3-SH2 construct (residues …). Kind of experiment: ITC; replicate, Figure S7 panel G.

Experimental findings from publication PMC13311836, “Clinically observed RASA1 missense mutants exhibit diverse RasGAP protein behaviors in vitro” (The Journal of Biological Chemistry, 2026) are described below.

Substitutions are numbered along the chain they refer to. [ ]: non-standard residue; d: D form. pY = N[C@@H](Cc1ccc(OP(=O)(O)O)cc1)C(=O)O

B1: p190RhoGAP phosphopeptide, residues 1083 to 1111 (pY1087, pY1105) (peptide)
peptide: Ac-DPSD[pY]AEPMDAVVKPRNEEENI[pY]SVPHDS-NH2
notes: p190RhoGAP (ARHGAP35), UniProt Q9NRY4, residues 1083-1111, 29 amino acids; also called p190RhoGAP peptide; ARHGAP35 peptide; source: synthetic peptide, bought: GenScript
The Kd is a measure of binding affinity in units of concentration. A lower Kd goes with higher affinity. Regarding B1, the Kd amounted to 6.49 nM in experiment [1]; 4.03 nM in experiment [2]; 5.11 nM in experiment [3]; 5.04 nM in experiment [4]; 3.65 nM in experiment [5]; 1.2 nM in experiment [6]. The Kd in experiment [10] turned out to be 8.14 nM; in experiment [11], 3.59 nM; in experiment [12], 7.23 nM; in experiment [13], 2.08 nM. The binding result in [7], in experiment [8] and in [9] was “binds” each time.
